Common to all, as to experiment: cell-based or functional assay
In test [1] the target is T1, FLAG-Hs_FPR2 C-terminally fused to Renilla Luciferase 8 (human, UniProt P25090 1-351).
T1 sequence (looked up): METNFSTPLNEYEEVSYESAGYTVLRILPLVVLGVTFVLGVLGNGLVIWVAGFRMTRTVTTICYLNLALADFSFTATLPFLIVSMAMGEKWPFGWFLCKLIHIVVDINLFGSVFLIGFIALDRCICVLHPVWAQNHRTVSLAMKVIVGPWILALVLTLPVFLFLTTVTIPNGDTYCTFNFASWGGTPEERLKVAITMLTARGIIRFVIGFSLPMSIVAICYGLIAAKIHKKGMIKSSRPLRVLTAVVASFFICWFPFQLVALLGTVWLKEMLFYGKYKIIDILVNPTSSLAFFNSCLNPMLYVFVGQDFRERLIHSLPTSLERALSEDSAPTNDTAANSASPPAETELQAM

For test [2], the target named is T2, FLAG-Hs_FPR1 C-terminally fused to Renilla Luciferase 8 (human, UniProt P21462 1-350).
T2 sequence (looked up): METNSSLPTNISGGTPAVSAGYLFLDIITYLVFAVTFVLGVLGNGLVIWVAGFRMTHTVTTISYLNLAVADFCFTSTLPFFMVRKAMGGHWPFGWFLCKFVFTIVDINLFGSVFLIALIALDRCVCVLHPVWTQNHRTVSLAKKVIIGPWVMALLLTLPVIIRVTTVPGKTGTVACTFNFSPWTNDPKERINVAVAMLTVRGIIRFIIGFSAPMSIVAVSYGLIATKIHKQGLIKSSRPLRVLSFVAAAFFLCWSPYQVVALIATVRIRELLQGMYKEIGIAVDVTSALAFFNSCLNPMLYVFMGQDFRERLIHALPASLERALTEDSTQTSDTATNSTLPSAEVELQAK

Test [3] has as its target T3, FLAG-Mm_Fpr1 C-terminally fused to Renilla Luciferase 8 (mouse, UniProt P33766 1-364).
T3 sequence (looked up): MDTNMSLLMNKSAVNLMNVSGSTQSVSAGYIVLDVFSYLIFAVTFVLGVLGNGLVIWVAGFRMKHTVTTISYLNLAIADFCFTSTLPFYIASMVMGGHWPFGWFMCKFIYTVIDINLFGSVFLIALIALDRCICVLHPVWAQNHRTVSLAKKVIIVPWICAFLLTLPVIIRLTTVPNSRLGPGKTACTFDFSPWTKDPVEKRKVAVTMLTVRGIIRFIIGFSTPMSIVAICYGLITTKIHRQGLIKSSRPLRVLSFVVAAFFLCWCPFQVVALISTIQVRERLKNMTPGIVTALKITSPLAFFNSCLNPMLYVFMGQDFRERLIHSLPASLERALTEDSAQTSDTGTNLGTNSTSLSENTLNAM

Test [4] deals with T4, FLAG-Mm_Fpr2 C-terminally fused to Renilla Luciferase 8 (mouse, UniProt O88536 1-351).
T4 sequence (looked up): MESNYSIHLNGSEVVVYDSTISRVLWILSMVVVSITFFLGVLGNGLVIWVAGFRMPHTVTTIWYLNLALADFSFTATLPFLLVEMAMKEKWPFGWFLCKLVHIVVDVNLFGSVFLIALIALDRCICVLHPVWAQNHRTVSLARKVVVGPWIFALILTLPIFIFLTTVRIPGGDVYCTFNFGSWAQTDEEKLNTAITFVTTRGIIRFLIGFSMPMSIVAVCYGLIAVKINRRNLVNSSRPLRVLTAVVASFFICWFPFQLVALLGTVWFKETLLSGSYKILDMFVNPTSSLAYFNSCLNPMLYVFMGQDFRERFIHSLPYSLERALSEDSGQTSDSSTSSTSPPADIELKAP

The target in test [5] is T2, FLAG-Hs_FPR1 C-terminally fused to …. The source holds these as a separate data set.
Test [6] concerns the target T3, FLAG-Mm_Fpr1 C-terminally fused to …. The source holds these as a separate data set.
Test [7] has as its target T4, FLAG-Mm_Fpr2 C-terminally fused to …. This is another data set of the same source.

Where no end group is shown, it is not given here. The star is where a group is joined. For = O=C*

B1: fMet-Leu-Phe (fMLF) (peptide)
peptide: For-Met-Leu-Phe
For the molecule B1, the “BRET of receptor-RLuc8 with Venus-mGsi: Emax (% of 1 μM WKYMVm)” value worked out at 61.7% in test [1], 115% in test [2], 59.3% in test [3] and 13.2% in test [4]. The “BRET of receptor-RLuc8 with Venus-mGsi: Log EC50 (M)” value is -4.05 log M in test [1], -6.47 log M in test [2], -4.93 log M in test [3] and -4.58 log M in test [4]. Besides, the figures for the “BRET of receptor-RLuc8 with Arrestin 3-YFP: Emax (% of 1 μM WKYMVm)” value in test [5], in test [6] and in test [7] were 97%, 83.4% and 22.7%, respectively. The “BRET of receptor-RLuc8 with Arrestin 3-YFP: Log EC50 (M)” value was -7.08 log M in test [5], -4.68 log M in test [6] and -4.71 log M in test [7].

The values are drawn from publication PMC12881670, “Investigation into ligand selectivity and bias at the formyl peptide receptor family” (The Journal of Pharmacology and Experimental Therapeutics, 2025).
